B1: BRF1 (parent)
chain: CTACGSVLEDNIIVSEVQFVESSG

Variants of: B1
Experiment: protein stability index of a GFP-peptide fusion (GPS, HEK-293T) (PSI 1-6); higher = more stable
Conditions: c terminus: a fixed tail appended
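Note: lentivirally expressed fusions sorted by FACS into six bins by GFP to DsRed ratio, PSI derived from sequencing read proportions per bin multiplied by bin number.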

Variant	protein stability index
V7P	3.64
V7K	4.22
V7W	2.53
V7H	2.58
V7Y	2.37
V7R	3.22
V7S	2.85
V7A	3.8
V7N	2.94
V7I	2.56
V7L	2.51
V7F	2.33
V7T	3.86
V7D	3.44
V7C	2.64
V7E	4.17
V7Q	2.96
V7M	2.72
V7G	2.8
N11T	2.44
N11V	1.96
N11I	1.14
N11D	2.84
N11W	1.01

Variant	protein stability index
N11G	2.96
N11E	2.19
N11Q	2.6
N11M	1.05
N11H	2.12
N11L	2.98
N11S	2.42
N11C	1.74
N11Y	2.06
N11P	2.91
N11K	4.01
N11A	1.54
N11F	1.89
G5W	2.27
G5Q	2.92
G5K	3.33
G5P	3.67
G5R	2.4
G5A	2.86
G5M	2.1
G5V	1.33
G5L	1.75
G5H	1.76
G5N	3.24

Variant	protein stability index
G5F	2.41
G5E	3.21
G5Y	1.76
G5D	3.62
G5I	2.76
G5T	2.91
G5C	1.78
G5S	3.17
L8W	1.89
L8H	3.32
L8T	4.19
L8A	2.9
L8Q	3.63
L8D	3.65
L8R	3.03
L8G	3.39
L8P	3.9
L8K	3.54
L8N	4.42
L8V	3.24
L8F	2.37
L8Y	2.93
L8S	3.06
L8M	3.79

Variant	protein stability index
L8I	3.44
L8E	3.68
L8C	3.29
S6K	3.06
S6V	2.22
S6Q	2.44
S6D	2.94
S6N	2.5
S6C	2.38
S6P	2.79
S6M	1.82
S6I	1.27
S6H	4.15
S6E	2.2
S6R	2.51
S6Y	1.59
S6L	1.39
S6G	3.35
S6A	2.73
S6T	3.38
S6F	1.24
E9M	2.57
E9I	2.08
E9H	2.32

Variant	protein stability index
E9S	2.85
E9Q	2.99
E9C	2.31
E9P	3.75
E9G	2.16
E9K	3.55
E9W	1.83
E9R	3.02
E9N	2.85
E9L	2.24
E9A	3.03
E9Y	2
E9D	3.55
E9F	2.67
E9T	2.55
E9V	2.26
C4M	3.88
C4N	4.37
C4D	4.7
C4E	4.21
C4R	3.57
C4A	3.49
C4F	2.78
C4T	3.21

Variant	protein stability index
C4I	3.35
C4H	4.04
C4K	4.04
C4P	2.68
C4Q	4.18
C4L	3.15
C4Y	2.61
C4S	3.5
C4G	3.74
C4V	3.83
D10E	3.38
D10I	3.2
D10M	2.94
D10K	3.43
D10H	2.67
D10N	2.55
D10G	1.84
D10A	2.41
D10R	3.89
D10L	3.29
D10Q	2.14
D10S	1.34
D10P	3.44
D10W	1.22

Variant	protein stability index
D10T	1.79
D10Y	2.24
A3V	3.22
A3N	4.03
A3Q	3.88
A3Y	2.5
A3T	3.07
A3P	3.47
A3W	3.08
A3S	2.91
A3R	2.9
I12G	3.73
I12K	4.16
I12N	4.8
I12P	3.55
I12C	3.53
I12F	2.23
I12A	3.77
I12L	3.06
I12E	4
I12M	3.13
I12H	3.41
I12D	3.08
